{"source": "paper PMC12421323", "key": {"[1]": {"biological_target": "T1, nucleolin (C23) (UniProt P19338 2-710)", "T1 sequence (P19338 2-710)": "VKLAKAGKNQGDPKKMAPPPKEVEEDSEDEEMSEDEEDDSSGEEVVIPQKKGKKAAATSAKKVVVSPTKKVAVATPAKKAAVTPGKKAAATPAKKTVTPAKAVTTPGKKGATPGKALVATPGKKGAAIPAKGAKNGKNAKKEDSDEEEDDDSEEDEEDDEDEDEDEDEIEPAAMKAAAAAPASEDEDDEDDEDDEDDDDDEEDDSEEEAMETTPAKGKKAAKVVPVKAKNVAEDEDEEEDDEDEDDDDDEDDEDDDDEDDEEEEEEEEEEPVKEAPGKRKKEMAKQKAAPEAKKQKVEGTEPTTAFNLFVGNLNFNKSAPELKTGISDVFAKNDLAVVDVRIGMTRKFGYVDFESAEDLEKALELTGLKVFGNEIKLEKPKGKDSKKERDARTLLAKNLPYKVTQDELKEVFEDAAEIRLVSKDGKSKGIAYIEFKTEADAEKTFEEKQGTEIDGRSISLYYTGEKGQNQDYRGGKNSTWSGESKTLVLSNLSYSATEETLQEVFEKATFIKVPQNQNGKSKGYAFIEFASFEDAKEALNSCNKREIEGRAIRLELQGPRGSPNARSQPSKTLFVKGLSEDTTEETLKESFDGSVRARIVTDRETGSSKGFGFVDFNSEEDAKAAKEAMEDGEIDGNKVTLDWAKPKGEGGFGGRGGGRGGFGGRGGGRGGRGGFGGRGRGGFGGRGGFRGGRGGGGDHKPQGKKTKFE", "assay": "EMSA"}, "[2]": {"biological_target": "T1, nucleolin (C23)", "assay": "competition"}, "[3]": {"biological_target": "T1, nucleolin (C23)", "assay": "EMSA", "remark": "listed apart in the source"}}, "data": [{"binder": "UGCUUACGUAGCGUGCCUUA (ssRNA)", "note": "[ssRNA 2]", "values": [{"measurement": "binding result", "setting": "[1]", "value": "binds"}]}, {"binder": "TTGGGCGGGCCGGGGGCGGG (structured_DNA)", "note": "[VEGF G4 (unlabelled)]", "values": [{"measurement": "binding result", "setting": "[2]", "value": "binds"}]}, {"binder": "TTGGGCGGGCCGGGGGCGGG (structured_DNA)", "note": "[VEGF G4]", "values": [{"measurement": "binding result", "setting": "[3]", "value": "binds"}]}]}
